B1: B-cell CLL/lymphoma 9 protein (Homo sapiens), O00512 (parent)
chain: MHSSNPKVRSSPSGNTQSSPKSKQEVMVRPPTVMSPSGNPQLDSKFSNQGKQGGSASQSQPSPCDSKSGGHTPKALPGPGGSMGLKNGAGNGAKGKGKRERSISADSFDQRDPGTPNDDSDIKECNSADHIKSQDSQHTPHSMTPSNATAPRSSTPSHGQTTATEPTPAQKTPAKVVYVFSTEMANKAAEAVLKGQVETIVSFHIQNISNNKTERSTAPLNTQISALRNDPKPLPQQPPAPANQDQNSSQNTRLQPTPPIPAPAPKPAAPPRPLDRESPGVENKLIPSVGSPASSTPLPPDGTGPNSTPNNRAVTPVSQGSNSSSADPKAPPPPPVSSGEPPTLGENPDGLSQEQLEHRERSLQTLRDIQRMLFPDEKEFTGAQSGGPQQNPGVLDGPQKKPEGPIQAMMAQSQSLGKGPGPRTDVGAPFGPQGHRDVPFSPDEMVPPSMNSQSGTIGPDHLDHMTPEQIAWLKLQQEFYEEKRRKQEQVVVQQCSLQDMMVHQHGPRGVVRGPPPPYQMTPSEGWAPGGTEPFSDGINMPHSLPPRGMAPHPNMPGSQMRLPGFAGMINSEMEGPNVPNPASRPGLSGVSWPDDVPKIPDGRNFPPGQGIFSGPGRGERFPNPQGLSEEMFQQQLAEKQLGLPPGMAMEGIRPSMEMNRMIPGSQRHMEPGNNPIFPRIPVEGPLSPSRGDFPKGIPPQMGPGRELEFGMVPSGMKGDVNLNVNMGSNSQMIPQKMREAGAGPEEMLKLRPGGSDMLPAQQKMVPLPFGEHPQQEYGMGPRPFLPMSQGPGSNSGLRNLREPIGPDQRTNSRLSHMPPLPLNPSSNPTSLNTAPPVQRGLGRKPLDISVAGSQVHSPGINPLKSPTMHQVQSPMLGSPSGNLKSPQTPSQLAGMLAGPAAAASIKSPPVLGSAAASPVHLKSPSLPAPSPGWTSSPKPPLQSPGIPPNHKAPLTMASPAMLGNVESGGPPPPTASQPASVNIPGSLPSSTPYTMPPEPTLSQNPLSIMMSRMSKFAMPSSTPLYHDAIKTVASSDDDSPPARSPNLPSMNNMPGMGINTQNPRISGPNPVVPMPTLSPMGMTQPLSHSNQMPSPNAVGPNIPPHGVPMGPGLMSHNPIMGHGSQEPPMVPQGRMGFPQGFPPVQSPPQQVPFPHNGPSGGQGSFPGGMGFPGEGPLGRPSNLPQSSADAALCKPGGPGGPDSFTVLGNSMPSVFTDPDLQEVIRPGATGIPEFDLSRIIPSEKPSQTLQYFPRGEVPGRKQPQGPGPGFSHMQGMMGEQAPRMGLALPGMGGPGPVGTPDIPLGTAPSMPGHNPMRPPAFLQQGMMGPHHRMMSPAQSTMPGQPTLMSNPAAAVGMIPGKDRGPAGLYTHPGPVGSPGMMMSMQGMMGPQQNIMIPPQMRPRGMAADVGMGGFSQGPGNPGNMMF

Variants of: B1
Conditions: with ctnb1_human CTNNB1, P35222
Chain of ctnb1_human CTNNB1, P35222 (P35222 whole entry): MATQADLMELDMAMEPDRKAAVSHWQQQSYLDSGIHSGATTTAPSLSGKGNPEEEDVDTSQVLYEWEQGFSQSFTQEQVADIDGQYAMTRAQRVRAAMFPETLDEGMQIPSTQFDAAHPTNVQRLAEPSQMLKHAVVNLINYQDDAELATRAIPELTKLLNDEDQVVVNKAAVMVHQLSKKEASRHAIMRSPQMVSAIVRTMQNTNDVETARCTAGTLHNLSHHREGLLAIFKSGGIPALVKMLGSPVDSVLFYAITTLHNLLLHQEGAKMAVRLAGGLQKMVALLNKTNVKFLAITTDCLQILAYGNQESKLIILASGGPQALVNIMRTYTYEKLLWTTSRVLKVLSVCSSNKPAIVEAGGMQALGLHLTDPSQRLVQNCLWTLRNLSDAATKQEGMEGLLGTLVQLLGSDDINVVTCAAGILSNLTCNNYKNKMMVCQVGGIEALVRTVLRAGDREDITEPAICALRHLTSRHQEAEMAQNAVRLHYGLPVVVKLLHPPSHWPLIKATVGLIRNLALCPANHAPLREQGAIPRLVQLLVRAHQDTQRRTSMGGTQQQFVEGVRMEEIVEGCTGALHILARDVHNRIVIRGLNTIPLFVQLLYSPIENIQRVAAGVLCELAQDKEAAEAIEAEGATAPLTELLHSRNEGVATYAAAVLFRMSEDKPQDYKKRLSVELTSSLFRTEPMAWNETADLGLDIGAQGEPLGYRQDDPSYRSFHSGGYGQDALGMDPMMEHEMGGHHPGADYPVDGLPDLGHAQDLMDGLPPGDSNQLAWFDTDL

Variant | effect of a mutation on the interaction
H358A | decreasing interaction
I369A | decreasing interaction
R359A | decreasing interaction
L366A | decreasing interaction

Reference: IntAct's records for PubMed 17052462
